# Results published in patent US6863888.
# B1: epitope-tagged JNK1 (Flag epitope Asp-Tyr-Lys-Asp-Asp-Asp-Asp-Lys inserted between codons 1 and 2), expressed in COS cells (protein)
# chain: MDYKDDDDKSRSKRDNNFYSVEIGDSTFTVLKRYQNLKPIGSGAQGIVCAAYDAILERNVAIKKLSRPFQNQTHAKRAYRELVLMKCVNHKNIIGLLNVFTPQKSLEEFQDVYIVMELMDANLCQVIQMELDHERMSYLLYQMLCGIKHLHSAGIIHRDLKPSNIVVKSDCTLKILDFGLARTAGTSFMMTPYVVTRYYRAPEVILGMGYKENVDLWSVGCIMGEMVCHKILFPGRDYIDQWNKVIEQLGTPCPEFMKKLQPTVRTYVENRPKYAGYSFEKLFPDVLFPADSEHNKLKASQARDLLSKMLVIDASKRISVDEALQHPYINVWYDPSEAEAPPPKIPDKQLDEREHTIEEWKELIYKEVMDLEERTKNGVIRGQPSPLAQVQQ
# B2: c-Jun N-terminal protein kinase (JNK), 46 kD form, endogenous kinase from cell extracts, P45983-2 1-384 (enzyme)
# chain: MSRSKRDNNFYSVEIGDSTFTVLKRYQNLKPIGSGAQGIVCAAYDAILERNVAIKKLSRPFQNQTHAKRAYRELVLMKCVNHKNIIGLLNVFTPQKSLEEFQDVYIVMELMDANLCQVIQMELDHERMSYLLYQMLCGIKHLHSAGIIHRDLKPSNIVVKSDCTLKILDFGLARTAGTSFMMTPYVVTRYYRAPEVILGMGYKENVDLWSVGCIMGEMVCHKILFPGRDYIDQWNKVIEQLGTPCPEFMKKLQPTVRTYVENRPKYAGYSFEKLFPDVLFPADSEHNKLKASQARDLLSKMLVIDASKRISVDEALQHPYINVWYDPSEAEAPPPKIPDKQLDEREHTIEEWKELIYKEVMDLEERTKNGVIRGQPSPLAQVQQ
# B3: c-Jun N-terminal protein kinase (JNK), 46 kD form, endogenous kinase from cell extracts (protein)
# chain: B2 chain
# What was measured:
# [1] = target: GSTvJun, GST fused to the region of v-Jun equivalent to chicken c-Jun AA 1-144 [GST: P08515]
# [2] = target: GSTcJun(wt), glutathione-S-transferase fused to c-Jun AA 1-223 [GST: P08515]
# [3] = target: T1, GST-cJun(43-223), GST fused to c-Jun AA 43-223
# T1 chain: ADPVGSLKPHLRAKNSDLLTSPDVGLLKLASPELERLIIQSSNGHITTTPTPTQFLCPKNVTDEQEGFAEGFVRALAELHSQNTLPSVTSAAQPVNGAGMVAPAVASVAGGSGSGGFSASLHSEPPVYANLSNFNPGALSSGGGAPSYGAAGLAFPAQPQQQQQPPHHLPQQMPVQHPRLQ
# [4] = target: T2, GST-cJun(1-79), GST fused to c-Jun AA 1-79
# T2 chain: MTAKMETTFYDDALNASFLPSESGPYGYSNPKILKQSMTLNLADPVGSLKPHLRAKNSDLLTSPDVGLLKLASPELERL
# [5] = target: myelin basic protein (MBP)
# [6] = target: T3, GSTcJun(Ala63/73), GST fused to c-Jun AA 1-223 with Ser 63 and Ser 73 converted to alanines
# T3 chain: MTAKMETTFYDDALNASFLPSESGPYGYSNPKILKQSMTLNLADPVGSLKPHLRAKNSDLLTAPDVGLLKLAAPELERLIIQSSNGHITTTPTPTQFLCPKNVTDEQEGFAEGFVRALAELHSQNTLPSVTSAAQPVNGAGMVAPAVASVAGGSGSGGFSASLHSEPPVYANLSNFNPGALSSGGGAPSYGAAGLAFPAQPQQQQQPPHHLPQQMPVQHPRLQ
# [7] = target: GAL4-cJun(43-223) (yeast; human), P04386; assay: cell-based or functional assay
# [8] = target: GAL4-cJun(33-223) (yeast; human), P04386; assay: cell-based or functional assay
# [9] = target: GAL4-cJun(56-223) (yeast; human), P04386; assay: cell-based or functional assay
# [10] = target: T4, GSTcJun(33-223), GST fused to c-Jun AA 33-223
# T4 chain: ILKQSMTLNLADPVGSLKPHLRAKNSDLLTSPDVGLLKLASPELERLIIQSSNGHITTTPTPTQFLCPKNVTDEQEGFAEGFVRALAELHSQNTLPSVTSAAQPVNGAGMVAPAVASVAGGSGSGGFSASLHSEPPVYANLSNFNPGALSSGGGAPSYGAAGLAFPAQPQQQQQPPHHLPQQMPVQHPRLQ
binder,measurement,setting,value
B1,"phosphorylation, immunecomplex kinase assay",[1],both GST-vJun and myelin basic protein (MBP) are very poor substrates for JNK1
same,"phosphorylation, immunecomplex kinase assay",[2],JNK1 efficiently phosphorylated GST-cJun fusion proteins containing residues 1-223 and 1-79 of c-Jun
same,"phosphorylation, immunecomplex kinase assay",[3],a deletion of c-Jun NH2-terminal sequences including the d-domain (residues 1-42) caused a marked decrease in phosphorylation by JNK1
same,"phosphorylation, immunecomplex kinase assay",[4],JNK1 efficiently phosphorylated GST-cJun fusion proteins containing residues 1-223 and 1-79 of c-Jun
same,"phosphorylation, immunecomplex kinase assay",[5],both GST-vJun and myelin basic protein (MBP) are very poor substrates for JNK1
same,"phosphorylation, immunecomplex kinase assay",[6],Replacement of Ser-63 and Ser-73 with Ala also decreased the observed phosphorylation
B2,"Ha-Ras responsiveness, CAT activity of 5xGAL4-Elb-CAT reporter in F9 cells (fold induction)",[7],5.2
same,"UV responsiveness, CAT activity of 5xGAL4-Elb-CAT reporter in F9 cells",[7],1.5 fold
same,"Ha-Ras responsiveness, CAT activity of 5xGAL4-Elb-CAT reporter in F9 cells (fold induction)",[8],9.8
same,"Ha-Ras responsiveness, CAT activity of 5xGAL4-Elb-CAT reporter in F9 cells (fold induction)",[9],5.2
same,"UV responsiveness, CAT activity of 5xGAL4-Elb-CAT reporter in F9 cells",[9],1.5 fold
B3,phosphorylation of the GSTcJun fusion protein by bound kinase,[10],Removal of AA 1-32 decreased phosphorylation of GSTcJun but had only a small effect on kinase binding
same,phosphorylation in solid-phase kinase assay,[6],Phosphorylation of this protein was considerably lower than that of GSTcJun(wt)
